Series [1] has as its target diketide-ACP4(4) (DEBS ACP4 with its natural C-terminal linker, loaded with diketide) (UniProt Q03132).
Series [2] concerns the target diketide-ACP4(Ø) (DEBS ACP4 without linker, loaded with diketide) (UniProt Q03132).
In series [3] the target is diketide-ACP2(2) (DEBS ACP2 with its natural C-terminal linker, loaded with diketide) (UniProt Q03131).
Series [4] addresses diketide-ACP2(4) (DEBS ACP2 with the C-terminal linker of module 4, loaded with diketide) (UniProt Q03131).
Another series deals with DEBS-2 (UniProt Q03132).

The text below walks through data of patent US20060110789.

Turning to “(3)M5+TE (module 5 of DEBS with the N-terminal linker of module 3, fused to thioesterase)”, in series [1], the “kcat/KM, fold decrease against the matched reaction (FIG. 28 B)” value was “fell approximately 20-fold and 150-fold, respectively”; the “triketide lactone formation at 20 µM substrate (FIG. 28 B)” value is “transfer of diketide from the donor ACP to the acceptor module occurred at 20 µM substrate concentration”. Further, the “kcat/KM (FIG. 29 B)” value in series [2] worked out at 41.7 M⁻¹ s⁻¹.
On to “(5)M5+TE (module 5 of DEBS with its own N-terminal linker, fused to thioesterase)”, for which the “triketide lactone formation at 20 µM substrate (FIG. 28 D)” value in series [3] was “no product was detected at the same substrate concentrations”. In addition, in series [4], the “kcat/KM, fold decrease against the matched reaction (FIG. 28 C)” value was “fell approximately 20-fold and 150-fold, respectively”; the “triketide lactone formation at 20 µM substrate (FIG. 28 C)” value is on record as “transfer of diketide from the donor ACP to the acceptor module occurred at 20 µM substrate concentration”. Further, in series [1], the “conversion of acyl-ACP into triketide lactone in 1 h (20 µM 4, 1 µM (5)M5+TE)” value was 70% of the acyl-ACP was converted into triketide lactone in 1 h; the “elongation rate constant (kcat) with 4b, fold increase against the NAC thioester 2b” value is listed as “the elongation rate constant (kcat) increases at least 25-fold”; the “k60 µM (printed there as kcat/KM)” value is “kcat/KM values of 1.4 min-1 and 9.3 min^-1”; the kcat/KM result is “kcat/KM values of 390 min^-1 mM^-1 and 290 min^-1mM^-1”. For the same substance, the “triketide lactone formation at 20 µM substrate (FIG. 28 A)” value in series [1] is recorded as “transfer of diketide from the donor ACP to the acceptor module occurred at 20 µM substrate concentration”. Also, the “kcat/KM (FIG. 29 A)” value in series [2] stood at 68.3 M⁻¹ s⁻¹.
“(5)M6+TE (module 6 of DEBS with the N-terminal linker of module 5, with thioesterase)”: in series [2], the “kcat/KM, fold decrease against diketide-ACP4(4) with the same module” value is “the kcat/KM values drop approximately 70-300 fold”.
With ery M1-RAL rifM5+ERL, the “6-dEB production on co-transformation in S. coelicolor (with DEBS-3)” value in the series with DEBS-2 is recorded as “Yes (dEB6)”.
